Data from patent US20140271640A1, “FGF-10 Complexes” (Permeon Biologics, Inc., priority 2012, published 2014).

Tests used:
FGFR2b receptor = FGFR2b receptor (Homo sapiens, UniProt P21802); conditions: relative to wild-type FGF10; cited from earlier work
[1] = Stability of Hisx6-FGF10-Myc following freeze/thaw cycles (A280, analytical SEC); type: physicochemical; conditions: after two (multiple) freeze/thaw cycles
Method: The stability of this cell penetrating domain of FGF10 was evaluated following multiple freeze/thaw cycles. To do this, protein concentration measurements and analytical size exclusion chromatography were carried out comparing protein which had undergone zero, one, or two freeze/thaw cycles. […] The study indicated about 75% stability of this protein after two freeze/thaw cycles.
Purified protein was subjected to the indicated number of freeze/thaw cycles (each freeze/thaw cycle consisted of snap-freezing the protein in liquid nitrogen, placing it at −80° C. for a minimum of two hours, and then thawing it on ice) and analyzed by size exclusion chromatography. After each thaw, the protein was subjected to 20,000×g centrifugation to remove any precipitation. The protein concentration of each sample was measured by A280, considering the extinction coefficient (24540) and molecular weight (19.57 kDa). In each case 40 μL of the protein was applied to a Superdex 75 10/300 GL column (GE Healthcare). The column running buffer was the same as the protein storage buffer (20 mM Hepes, pH 7.5, 0.5 M NaCl).

[2] = Microautoradiography analysis (MARG) of cellular distribution in liver and kidney; type: in vivo, mice
Method: To obtain specific cell-type uptake information in select organs, microautoradiography analysis was performed on selected organs collected at various time points. For microautoradiography analysis (MARG), animals were anesthetized and blood collected, as described above. Tissue samples are trimmed to be approximately 0.5 cm^2, placed into cryosectioning embedding media on a cryosectioning sample holder, and frozen in isopentane that is cooled with liquid nitrogen. Frozen samples were stored in liquid nitrogen until analysis by MARG. For analysis, tissues were cryosectioned at 5 μm under darkroom conditions, and collected onto glass slides that are pre-coated with photographic emulsion (Kodak NTB photographic emulsion). Slides were placed in sealed light-safe slide boxes and allowed to expose the photographic emulsion for 7 days before being developed, fixed and stained with hematoxylin and eosin. All slides were examined for cellular localization using light microscopy.

[3] = mouse, in vivo
Hela cells = assay: Cell penetrating activity of FGF10 domain, anti-myc flow cytometry; type: cell-based; conditions: 1 uM, 20 minutes
Method: On the day prior to the assay, 10^6 Hela cells were plated in each well of a 6-well plate and incubated in the 37° C. CO2 incubator overnight. The cells were washed once with PBS and then were replenished with 1 mL of serum-free DEMEM (A) or media containing 1 uM of the FGF10 domain construct FGF10-myc (B, C, and D) and were incubated for 20 minutes in the 37° C. CO2 incubator. The cells were then washed three times with ice-cold PBS. For (C) and (D), cells were treated with 0.25% trypsin/EDTA and washed three times with PBS. The cells in (D) were fixed for 10 minutes with 1 mL 4% formaldehyde and permealized for 5 minutes with 0.2% saponin. Then 10 uL of 0.1 mg/mL FITC labeled chicken polyclonal anti-myc tag antibody (Abcam #1394) was added to all the cells and incubated at 4° C. in the dark for 2 hours. The cells were washed three times with ice cold PBS. Cells in (A) and (B) were detached with 1 mL 10 mM EDTA. Cells were analyzed using a BD Accuri™ C6 flow cytometer.

[4] = mouse, in vivo, iv
[5] = test system: SKOV-3 ovarian cancer cells; assay: SKOV-3 cell viability MTS assay with endosome escape agent; type: cell-based, human; conditions: 1 uM protein, 4 hours, with endosome escape agent (strongest at 13.3 nM)
Method: SKOV-3 ovarian cancer cells were plated in a 96-well format and grown overnight. Cells were incubated with test articles: a) 1 uM of p16, b) 1 uM of +36GFP-p16, c) 1 uM of FGF10-p16 or d) no treatment in the presence of various concentrations of an endosome escape agent such as PFO (five 3× dilution starting from 40 nM; exemplary endosomal escape agents, such as PFO or PFO-like agents, are disclosed in WO2012/094653) for 4 hours in serum-free medium. One group of cells, called “untreated cells” received no test article treatment and no PFO treatment. After incubation, the media from all cell wells was aspirated and fresh complete medium was added for 3 hours. Cell viability was assessed using an MTS assay. Results are reported as number of viable cells as % relative to the untreated cells.
The CDK4/6 inhibitor PD-0332991 was used as positive control for inhibition of cell proliferation in the p16 deficient SKOV-3 cell line (FIG. 22).

[6] = test system: HepG2 (hepatoma), Hela cells, SW626 cells (ovarian); assay: Cell penetration of p16 fusion proteins, flow cytometry; type: cell-based; conditions: 2 uM, overnight
Method: On the day prior to the assay, HepG2 (hepatoma), Hela cells, and 10^6 SW626 cells (ovarian) were plated in each well of a 6-well plate and incubated in the 37° C. CO2 incubator. The cells were washed once with PBS and then were replenished with 2 mL of growth media containing 2 uM of p16, +36GFP-p16 or FGF10-p16 proteins and were incubated overnight in the 37° C. CO2 incubator. The cells were then washed once with PBS and detached with 0.25% trypsin/EDTA. The cells were fixed for 10 minutes with 1 mL 4% formaldehyde and permeabilized for 5 minutes with 0.5 mL 0.4% saponin. Then 2.5 uL of 1 mg/mL FITC labeled chicken polyclonal anti-myc tag antibody (Abcam #1394) was added to all the cells and incubated at 4° C. in the dark for 2 hours, except for cells treated with +36GFP-p16 (GFP itself was used for detection). The cells were washed twice with ice cold PBS and were analyzed using a BD Accuri™ C6 flow cytometer.

FGFR-1b = FGFR-1b (Homo sapiens, UniProt P11362); conditions: cited from earlier work
Chain of FGFR-1b (P11362 22-822 isoform P11362-19 limits assumed): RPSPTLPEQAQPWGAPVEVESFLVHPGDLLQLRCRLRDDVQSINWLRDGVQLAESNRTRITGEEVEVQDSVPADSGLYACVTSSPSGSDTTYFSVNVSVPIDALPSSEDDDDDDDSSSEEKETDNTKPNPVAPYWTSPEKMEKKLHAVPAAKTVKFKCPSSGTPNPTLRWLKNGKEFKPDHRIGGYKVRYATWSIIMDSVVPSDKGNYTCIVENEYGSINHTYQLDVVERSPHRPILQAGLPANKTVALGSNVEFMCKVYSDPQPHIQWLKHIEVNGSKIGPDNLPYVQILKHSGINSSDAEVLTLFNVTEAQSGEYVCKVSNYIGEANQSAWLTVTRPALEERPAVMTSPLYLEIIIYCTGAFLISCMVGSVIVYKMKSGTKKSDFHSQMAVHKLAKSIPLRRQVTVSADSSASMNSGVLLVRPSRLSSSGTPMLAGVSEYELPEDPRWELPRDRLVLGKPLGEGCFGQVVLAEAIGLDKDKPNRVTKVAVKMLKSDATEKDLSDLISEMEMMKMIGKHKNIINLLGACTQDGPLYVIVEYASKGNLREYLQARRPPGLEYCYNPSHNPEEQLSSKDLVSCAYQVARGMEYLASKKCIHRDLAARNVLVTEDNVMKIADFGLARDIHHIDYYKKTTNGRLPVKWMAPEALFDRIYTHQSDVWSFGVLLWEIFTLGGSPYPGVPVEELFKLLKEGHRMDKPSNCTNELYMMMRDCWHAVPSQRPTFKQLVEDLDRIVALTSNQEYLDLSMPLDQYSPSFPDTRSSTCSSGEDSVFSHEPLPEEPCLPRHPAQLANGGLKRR

Chain of FGFR2b receptor (P21802 22-822 isoform P21802-3 limits assumed): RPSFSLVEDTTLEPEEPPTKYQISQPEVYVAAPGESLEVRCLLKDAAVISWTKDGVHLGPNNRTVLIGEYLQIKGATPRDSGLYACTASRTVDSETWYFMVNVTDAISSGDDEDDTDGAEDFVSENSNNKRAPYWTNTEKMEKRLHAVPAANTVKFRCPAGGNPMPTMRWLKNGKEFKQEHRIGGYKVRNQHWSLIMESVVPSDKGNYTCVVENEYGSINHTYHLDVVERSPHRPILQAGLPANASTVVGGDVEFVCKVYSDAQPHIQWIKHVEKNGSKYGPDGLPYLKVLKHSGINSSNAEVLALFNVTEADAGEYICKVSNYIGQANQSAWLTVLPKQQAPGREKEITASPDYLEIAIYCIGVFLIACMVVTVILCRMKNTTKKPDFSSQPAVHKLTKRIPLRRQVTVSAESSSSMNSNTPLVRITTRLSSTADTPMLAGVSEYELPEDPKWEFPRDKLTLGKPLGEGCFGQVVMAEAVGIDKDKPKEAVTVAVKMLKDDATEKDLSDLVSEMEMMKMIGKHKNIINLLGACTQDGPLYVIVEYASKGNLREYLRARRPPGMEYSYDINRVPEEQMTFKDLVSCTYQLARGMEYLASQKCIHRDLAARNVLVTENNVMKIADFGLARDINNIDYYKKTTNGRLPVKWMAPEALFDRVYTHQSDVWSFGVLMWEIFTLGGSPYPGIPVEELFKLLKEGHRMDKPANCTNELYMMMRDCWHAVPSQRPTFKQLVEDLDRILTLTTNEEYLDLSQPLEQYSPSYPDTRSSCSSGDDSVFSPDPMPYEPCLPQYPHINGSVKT

B1: FGF10 E158K/K195A: FGF-10 variant or fragment having two substitutions E158K/K195A (protein)
chain: GRHVRSYNHLQGDVRWRKLFSFTKYFLKIEKNGKVSGTKKENCPYSILEITSVEIGVVAVKAINSNYYLAMNKKGKLYGSKEFNNDCKLKERIEKNGYNTYASFNWQHNGRQMYVALNGKGAPRRGQKTRRANTSAHFLPMVVHS
In the case of B1, the “decrease in binding to the FGFR2b receptor (factor / fold)” value (FGFR2b receptor) is given as “approximately 4”.

B2: FGF10: Hisx6- and Myc-tagged domain of human FGF10 with the amino acid sequence of SEQ ID NO: 2 (protein, listed as Homo sapiens)
chain: GRHVRSYNHLQGDVRWRKLFSFTKYFLKIEKNGKVSGTKKENCPYSILEITSVEIGVVAVKAINSNYYLAMNKKGKLYGSKEFNNDCKLKERIEENGYNTYASFNWQHNGRQMYVALNGKGAPRRGQKTRRKNTSAHFLPMVVHS
modifications: His6 and Myc tags
In the case of B2, the “stability after freeze/thaw cycles” value ([1]; listed as His6-FGF10-myc) is reported as 75%, the “stability after freeze/thaw cycles” value ([1]; listed as Hisx6-FGF10-Myc) is reported as “about 75%” and the “cellular distribution in kidney (MARG)” value ([2]; kidney) is reported as “uniformly distributed throughout the kidney”. The “cellular distribution in liver (MARG)” value ([2]; liver) was “uniformly distributed throughout the liver tissue including in hepatocytes”, the “partitioning between plasma compartment and blood cell compartment” value [3] was “favor the plasma compartment over the blood cell compartment” and the “plasma concentration compared with Tat-TK or +36GFP” value [3] was “higher concentrations in plasma 1 hour post-injection than Tat-TK or +36GFP”. For the same molecule, the “cells with protein present on the cell membrane” value (Hela cells; no trypsin) was 98.8%, the “cells stained positive after trypsin treatment (internalized protein)” value (Hela cells; trypsin, fixed and permeabilized) was “almost all the cells stained positive” and the “travel beyond the injection site” value [4] was “able to travel significantly beyond the area of the injection site”.

B3: FGF10 R78A: FGF-10 variant or fragment having one substitution R78A (protein)
chain: GRHVRSYNHLQGDVAWRKLFSFTKYFLKIEKNGKVSGTKKENCPYSILEITSVEIGVVAVKAINSNYYLAMNKKGKLYGSKEFNNDCKLKERIEENGYNTYASFNWQHNGRQMYVALNGKGAPRRGQKTRRKNTSAHFLPMVVHS
In the case of B3, the “decrease in binding to the FGFR2b receptor (factor / fold)” value (FGFR2b receptor) is given as “approximately 4”.

B4: p16: human p16Ink4A tumor suppressor protein without penetrating polypeptide (protein, listed as Homo sapiens)
chain: MEPAAGSSMEPSADWLATAAARGRVEEVRALLEAGALPNAPNSYGRRPIQVMMMGSARVAELLLLHGAEPNCADPATLTRPVHDAAREGFLDTLVVLHRAGARLDVRDAWGRLPVDLAEELGHRDVARYLRAAAGGTRGSNHARIDAAEGPSDIPD
For B4, the “number of viable cells / cell proliferation” value [5] was “failed to block cell proliferation at levels higher than the background toxicity of an endosomal escape agent” and the cell penetration [6] was “does not”.

B5: FGF10-p16: fusion protein of FGF10 domain (SEQ ID NO: 2), (G4S)2 linker and human p16 (protein)
chain: MEQKLISEEDLGSGRHVRSYNHLQGDVRWRKLFSFTKYFLKIEKNGKVSGTKKENCPYSILEITSVEIGVVAVKAINSNYYLAMNKKGKLYGSKEFNNDCKLKERIEENGYNTYASFNWQHNGRQMYVALNGKGAPRRGQKTRRKNTSAHFLPMVVHSGHGGGGSGGGGSMEPAAGSSMEPSADWLATAAARGRVEEVRALLEAGALPNAPNSYGRRPIQVMMMGSARVAELLLLHGAEPNCADPATLTRPVHDAAREGFLDTLVVLHRAGARLDVRDAWGRLPVDLAEELGHRDVARYLRAAAGGTRGSNHARIDAAEGPSDIPDGHGHHHHHH
For B5, the “number of viable cells / cell proliferation” value [5] was “significant reduction in the number of viable cells” and the “treated cells stained positive” value ([6]; trypsin detached) was roughly 30%.

B6: Fibroblast growth factor 10 (FGF-10): native FGF family member, ligand of FGFR-2b (protein, UniProt O15520 38-208, looked up)
Fibroblast growth factor 10: QALGQDMVSPEATNSSSSSFSSPSSAGRHVRSYNHLQGDVRWRKLFSFTKYFLKIEKNGKVSGTKKENCPYSILEITSVEIGVVAVKAINSNYYLAMNKKGKLYGSKEFNNDCKLKERIEENGYNTYASFNWQHNGRQMYVALNGKGAPRRGQKTRRKNTSAHFLPMVVHS
For B6, the “binding affinity to FGFR-1b as % of binding affinity to FGFR-2b” value (FGFR-1b) is given as “about 10%”.
